Test results: paper PMC2222952, “Structural and Biochemical Bases for the Inhibition of Autophagy and Apoptosis by Viral BCL-2 of Murine γ-Herpesvirus 68” (PLoS Pathogens, 2008)
Where two headings read alike, the source gives them in different places. Ends that are not written are not given here.

B8: M11 (residues 1–137), purified alone (domain or fragment)
chain: MSHKKSGTYWATLITAFLKTVSKVEELDCVDSAVLVDVSKIITLTQEFRRHYDSVYRADYGPALKNWKRDLSKLFTSLFVDVINSGRIVGFFDVGRYVCEEVLCPGSWTEDHELLNDCMTHFFIENNLMNHFPLEDI
notes: source: E. coli BL21(DE3), purified (Ni-NTA, Hitrap Q)

What was measured:
[1] = biological target: T1, M11, viral BCL-2 of murine γ-herpesvirus 68 (residues 1–137) (Murid herpesvirus 4, UniProt P89884); format: binding
T1 construct: Each of the DNA fragments coding for M11 (residues 1–137); His6 tag; This is inferred: pPROEX HTa encodes an N-terminal His tag with a TEV site, and purification was on Ni-NTA; (N); made in house; host or cells: E. coli BL21(DE3)
T1 sequence (P89884 whole entry, looked up): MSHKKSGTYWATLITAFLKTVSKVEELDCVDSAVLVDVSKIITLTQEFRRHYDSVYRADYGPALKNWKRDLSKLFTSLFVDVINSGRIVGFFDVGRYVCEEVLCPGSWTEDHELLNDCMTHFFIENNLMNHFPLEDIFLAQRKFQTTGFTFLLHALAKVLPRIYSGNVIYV
Source text: (§1) “HT”, “CCD” and “ECD” denote hydrophobic tail, coiled-coil domain and evolutionarily conserved domain, respectively. […] The surface coloring scheme is as follows: olive for Val, Leu, Ile, Phe, Trp, Met, and Ala; yellow for Cys, Gly, Tyr, and Pro; gray for other amino acids. […] Only the BH3-binding groove region of M11 is shown for clarity. […] The arrows indicate the movements of the Cα atoms of Asp59 and Tyr60 in M11. (C) ITC analysis.
(§2) Figure 5 Analyses of the Interactions between M11 or BCL-2 Proteins and BAX/BAK (A) Cell-based binding assay. 293T cells were transfected with HA-tagged BAK or Flag-tagged BAX together with the indicated GST-tagged prosurvival BCL-2 proteins. Whole cell lysates were used for immunoprecipitation with anti-GST followed by immunoblotting with anti-HA or anti-Flag. […] (B) ITC analyses of the interactions of M11 with the BH3 peptides of BAX or BAK. The ITC analysis was carried out by titrating 0.1 mM of the indicated peptides into 5 μM of M11. The ITC run for the titration of the 26-mer BAK peptide is shown. […] NIH3T3 cells were transfected with HA-tagged M11 and whole cell lysates were used for immunoprecipitation with control rabbit serum or anti-BAK followed by immunoblotting with anti-HA.
(§3) A plasmid containing the DNA segment coding for human BCL-2 (residues 1–50 and 92–207) was also constructed. The resulting protein lacks the internal long loop (residues 51–91) and contains a replacement of residues 35–50 with residues 33–48 of BCL-XL, which was necessary for the solubility of the protein as reported earlier. Each construct was introduced into the E. coli BL21(DE3) strain. The proteins were expressed at 21 °C overnight and purified using a Ni-NTA column and a Hitrap Q anion exchange column.
(§4) All measurements were carried out at 25 °C on a MicroCalorimetry System (MicroCal). Protein samples were dialyzed against the solution containing 20 mM Tris-HCl (pH 7.4) and 100 mM NaCl. The samples were degassed for 20 min and centrifuged to remove any residuals prior to the measurements. Dilution enthalpies were measured in separate experiments (titrant into buffer) and subtracted from the enthalpies of the binding between the protein and the titrant. Data were analyzed using the Origin software (OriginLab Corp.).

[2] = biological target: T2, M11, viral BCL-2 of murine γ-herpesvirus 68 (residues 1–137) (Murid herpesvirus 4, UniProt P89884); format: binding; details: ITC, 25 °C, 20 mM Tris-HCl (pH 7.4), 100 mM NaCl; Table S2
T2 construct: Each of the DNA fragments coding for M11 (residues 1–137); His6 tag; This is inferred: pPROEX HTa encodes an N-terminal His tag with a TEV site, and purification was on Ni-NTA; (N); made in house; host or cells: E. coli BL21(DE3)
Source text: as §1, §2, §3, §4

[3] = system: BCL-2 ∆C22; design: method as in earlier work; details: Table S1; relative values, not absolute KD; peptides of Chen et al. are the same as or 1 to 2 residues shorter than those of this paper; read-out: binding affinity for BCL-2 ∆C22 (relative value, competitive binding assay); cited from earlier work
[4] = system: BCL-XL ∆C24; details: Table S1; relative values, not absolute KD; peptides of Chen et al. are the same as or 1 to 2 residues shorter than those of this paper; read-out: binding affinity for BCL-XL ∆C24 (relative value, competitive binding assay); cited from earlier work
[5] = system: BCL-w ∆C29; details: Table S1; relative values, not absolute KD; peptides of Chen et al. are the same as or 1 to 2 residues shorter than those of this paper; read-out: binding affinity for BCL-w ∆C29 (relative value, competitive binding assay); cited from earlier work
[6] = system: MCL ∆N151 ∆C23; design: method as in earlier work; details: Table S1; relative values, not absolute KD; peptides of Chen et al. are the same as or 1 to 2 residues shorter than those of this paper; read-out: binding affinity for MCL ∆N151 ∆C23 (relative value, competitive binding assay); cited from earlier work
[7] = system: A1 ∆C20; design: method as in earlier work; details: Table S1; relative values, not absolute KD; peptides of Chen et al. are the same as or 1 to 2 residues shorter than those of this paper; read-out: binding affinity for A1 ∆C20 (relative value, competitive binding assay); cited from earlier work
[8] = biological target: B8; experiment: ITC; details: both partners purified
[9] = biological target: T3, Beclin1(101–267) (mouse, UniProt O88597 101-267); experiment: ITC; details: both partners purified
T3 construct: also called Beclin1 fragment containing residues 101–267; large Beclin1 fragment; source: E. coli BL21(DE3), purified (Ni-NTA, Hitrap Q)

[10] = biological target: human BCL-2 (residues 1–50 and 92–207); experiment: Isothermal titration calorimetry (ITC) of BCL-2 with Beclin1 fragment; format: binding
Method: Figure 3 M11 Interacts Much More Tightly with Beclin1 than BCL-2 and BCL-XL (A) ITC analysis. The measurement was carried out by titrating 0.1 mM of M11 or BCL-2 into 5 μM of the indicated Beclin1 fragment. The K D values were deduced from curve fittings of the integrated heat per mol of added ligand. (B) M11–Beclin1 interface is tighter than that of BCL-XL–Beclin1. The structures of M11–Beclin1 fragment (left) and BCL-XL–Beclin1 peptide (right) are compared side by side. In both the structures, the five consensus BH3 residues of the bound α-helices and the side chains of M11 or BCL-XL interacting with those residues are shown as sticks and labeled. Noted are the tighter interactions of the N-terminal region of Beclin1 with the α3 helix of M11 than the corresponding region in the BCL-XL–Beclin1 helix (indicated by dotted circles).
Each of the DNA fragments coding for M11 (residues 1–137), mouse BCL-XL (residues 1–44 and 85–196) or mouse Beclin1 (residues 101–267) was cloned into pPROEX HTa. […]
All measurements were carried out at 25 °C on a MicroCalorimetry System (MicroCal). […] Dilution enthalpies were measured in separate experiments (titrant into buffer) and subtracted from the enthalpies of the binding between the protein and the titrant. Data were analyzed using the Origin software (OriginLab Corp.).

[11] = biological target: T4, mouse BCL-XL (residues 1–44 and 85–196) (mouse, UniProt Q64373-1 1-196, lacking the internal long loop (residues 45–84)); experiment: native gel or EMSA; details: both partners purified
T4 construct: also called BCL-XL lacking the internal long loop and the C-terminal tail region
T4 sequence (Q64373 other isoform, or with tags, fused parts or gaps with the stated changes): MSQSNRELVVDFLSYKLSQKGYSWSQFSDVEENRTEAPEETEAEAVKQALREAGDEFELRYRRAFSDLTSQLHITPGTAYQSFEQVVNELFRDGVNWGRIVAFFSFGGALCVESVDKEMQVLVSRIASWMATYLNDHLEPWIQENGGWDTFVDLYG

[12] = 25 °C, 20 mM Tris-HCl (pH 7.4), 100 mM NaCl
[13] = ITC, 25 °C, 20 mM Tris-HCl (pH 7.4), 100 mM NaCl, Table S2

## BAK (16-mer; residues 69-84): synthetic 16-mer peptide, residues 69–84 of BAK, spanning the BH3 domain (LGQVGRQLALIGDDIN)
[1]; [12]
  interaction with M11 in ITC, in words (KD could not be deduced): flat titration curve

## HRAEVQIARKLQCIADQFHRLHTQ [BMF]
[2]
  -T∆S (M11 + BH3): -2.56 kcal/mol
  ∆G (M11 + BH3): -8.90 kcal/mol
  ∆H (M11 + BH3): -6.34 ± 0.07 kcal/mol
[3]
  IC50: 3 nM
[4]
  IC50: 9.7 nM
[5]
  IC50: 9.8 nM
[6]
  IC50: 1100 nM
[7]
  IC50: 1800 nM

## Beclin1 fragment composed of residues 101–116: a shorter Beclin1 fragment composed of residues 101–116 (ASDGGTMENLSRRLKV)
[1]; [12]
  interaction with M11 in ITC, in words (KD could not be deduced): no sign of interaction

## RWAAAQVTALRLQALGDELHRRAMRR [Hrk]
[3]
  IC50: 320 nM
[4]
  IC50: 3.7 nM
[5]
  IC50: 49 nM
[7]
  IC50: 46 nM

## EEEWAREIGAQLRRMADDLNAQYERR [PUMA]
[6]
  IC50: 5 nM
[7]
  IC50: 5.7 nM

## BIK: synthetic 25-mer BH3 peptide, residues 45–69 of BIK (VEGRNQVALRLACIGDEMDLCLRSP)
[1]; [12]
  interaction with M11 in ITC, in words (KD could not be deduced): did not interact or poorly interacted
[4]
  IC50: 43 nM
[5]
  IC50: 12 nM
[7]
  IC50: 58 nM

B1: Noxa BH3 peptide, 26-mer (residues 16–41 of Noxa) (peptide, UniProt Q9JM54 16-41, looked up)
peptide: RAELPPEFAAQLRKIGDKVYCTWSAP
notes: also called Noxa peptide; source: synthetic peptide, bought: Peptron (Korea)
[8]
  binding result: binds

B2: human BCL-2 (residues 1–50 and 92–207, residues 35–50 replaced with residues 33–48 of BCL-XL) (domain or fragment, UniProt P10415-1 1-34, looked up)
chain: MAHAGRTGYDNREIVMKYIHYKLSQRGYEWDAGDNRTEAPEGTESEMETPVVHLTLRQAGDDFSRRYRRDFAEMSSQLHLTPFTARGRFATVVEELFRDGVNWGRIVAFFEFGGVMCVESVNREMSPLVDNIALWMTEYLNRHLHTWIQDNGGWDAFVELYGPSMR
notes: also called cellular BCL-2; source: E. coli BL21(DE3), purified (Ni-NTA, Hitrap Q)
[9]
  Kd: 1700 nM

B3: Beclin1(101–267): mouse Beclin1 fragment containing residues 101–267, expressed as a soluble form in E. coli (protein)
chain: ASDGGTMENLSRRLKVTGDLFDIMSGQTDVDHPLCEECTDTLLDQLDTQLNVTENECQNYKRCLEILEQMNEDDSEQLQRELKELALEEERLIQELEDVEKNRKVVAENLEKVQAEAERLDQEEAQYQREYSEFKRQQLELDDELKSVENQVRYAQIQLDKLKKTNV
[1]; ITC, 25 °C, 20 mM Tris-HCl (pH 7.4), 100 mM NaCl, 0.1 mM M11 titrated into 5 μM Beclin1 fragment, KD from curve fitting, listed as Residues 101 - 267, read-out: KD (M11 – Beclin1 fragment)
  Kd: 40.2 ± 9.05 nM
[1]; ITC, 25 °C, 20 mM Tris-HCl (pH 7.4), 100 mM NaCl, 0.1 mM M11 titrated into 5 μM Beclin1 fragment, KD from curve fitting, read-out: KD (M11 – Beclin1 fragment)
  Kd: 40 nM
[1]; [13]
  -T∆S (M11 + Beclin1): 4.23 kcal/mol
  ∆G (M11 + Beclin1): -10.10 kcal/mol
  ∆H (M11 + Beclin1): -14.33 ± 0.23 kcal/mol
[1]; ITC, read-out: dissociation constant (M11 – BH3-like domain of Beclin1)
  Kd: 40 nM
[10]; 25 °C, 20 mM Tris-HCl (pH 7.4), 100 mM NaCl, Table S2, read-out: KD (BCL-2 + Beclin1)
  Kd: 1680 ± 452 nM
[10]; read-out: binding affinity between cellular BCL-2 and Beclin1
  Kd: 1700 nM

B4: PUMA BH3 peptide, 26-mer (residues 130–155 of PUMA) (peptide, UniProt Q99ML1 130-155, looked up)
peptide: EEEWAREIGAQLRRMADDLNAQYERR
notes: also called PUMA peptide; source: synthetic peptide, bought: Peptron (Korea)
[8]
  binding result: binds

B5: BAK BH3 peptide, 26-mer (residues 65–90 of BAK) (peptide, UniProt O08734 65-90, looked up)
peptide: PNSILGQVGRQLALIGDDINRRYDTE
notes: also called BAK peptide; 26-mer BAK peptide; source: synthetic peptide, bought: Peptron (Korea)
[8]
  Kd: 76 nM

B6: BID BH3 peptide, 25-mer (residues 80–104 of BID) (peptide, UniProt P70444 80-104, looked up)
peptide: EEIIHNIARHLAQIGDEMDHNIQPT
notes: also called BID peptide; source: synthetic peptide, bought: Peptron (Korea)
[8]
  binding result: binds

B7: BIM BH3 peptide, 26-mer (residues 139–164 of BIM) (peptide, UniProt O54918-1 139-164, looked up)
peptide: DLRPEIRIAQELRRIGDEFNETYTRR
notes: also called BIM peptide; source: synthetic peptide, bought: Peptron (Korea)
[8]
  binding result: binds
[11]
  binding result: binds

## B8
[9]
  Kd: 40 nM

B9: BAX BH3 peptide, 26-mer (residues 52–77 of BAX) (peptide, UniProt Q07813-1 52-77, looked up)
peptide: QDASTKKLSECLRRIGDELDSNMELQ
notes: also called BAX peptide; source: synthetic peptide, bought: Peptron (Korea)
[8]
  Kd: 690 nM

B10: BAD BH3 peptide, 27-mer (residues 137–163 of BAD) (peptide, UniProt Q61337 137-163, looked up)
peptide: APPNLWAAQRYGRELRRMSDEFEGSFK
notes: also called BAD peptide; source: synthetic peptide, bought: Peptron (Korea)
[11]
  binding result: binds
